From patent US20180037644A1 (Pfizer, published 2018)

Biological target: T1, human IL-33 WT (R&D) (human, UniProt O95760 112-270)
T1 construct: R&D Systems Cat. No. 3625-IL/CF, wild-type cysteines; DTT pretreatment in some assays is said under assay or readout; also called IL-33 (R&D); hIL-33 (R&D)
T1 sequence: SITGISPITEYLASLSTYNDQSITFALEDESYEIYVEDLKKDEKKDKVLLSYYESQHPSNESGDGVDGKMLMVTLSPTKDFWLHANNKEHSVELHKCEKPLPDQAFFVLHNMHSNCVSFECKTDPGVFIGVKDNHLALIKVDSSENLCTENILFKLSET
Test: Octet, captured on anti-Fc tip; IL-33 premixed with IL33-158LS (competitor)

B1: IL33-271 (antibody, human IgG1, kappa, V domains shown)
VH: QVLLVQSGAEVKKPGATVKVSCKASGSTFTGYYMHWVRQAPGQGLEWMGWINPNNGGTNYAQKFQGRVTMTRDTSISTAYMELSRLRSDDTAVYYCARELRYNWKSWGQGTLVTVSS
VL: EIVLTQSPGTLSLSPGERVTLSCRASQSVGRPYLAWYQQIPGQAPRLLIYGASSRATDIPDRFSGNGSGTDFTLTISRLEPEDFAVYYCQQYDNSPYTFGQGTRLEIKR
notes: also called control non-neutralizing anti-IL-33 antibody
B1: binds.
